Reference: paper PMC1931440

Each substance was assayed against murine type IV collagen (murine) (UniProt P02463) (assay: adherence of recombinant bacteria to collagen-coated wells; intact E. coli EPI300 expressing Hag (~10^7 CFU in PBS with 0.15% gelatin) added to BioCoat murine type IV collagen wells with tissue culture medium; centrifuged 165 x g 5 min; 1 hr at 37°C, 7.5% CO2; washed five times; fixed, crystal violet; bacteria counted per microscopic field, normalized by CFU; negative control E. coli with pCC1.3).
Chain of UniProt P02463 (P02463 173-1669, chain 1 of 2): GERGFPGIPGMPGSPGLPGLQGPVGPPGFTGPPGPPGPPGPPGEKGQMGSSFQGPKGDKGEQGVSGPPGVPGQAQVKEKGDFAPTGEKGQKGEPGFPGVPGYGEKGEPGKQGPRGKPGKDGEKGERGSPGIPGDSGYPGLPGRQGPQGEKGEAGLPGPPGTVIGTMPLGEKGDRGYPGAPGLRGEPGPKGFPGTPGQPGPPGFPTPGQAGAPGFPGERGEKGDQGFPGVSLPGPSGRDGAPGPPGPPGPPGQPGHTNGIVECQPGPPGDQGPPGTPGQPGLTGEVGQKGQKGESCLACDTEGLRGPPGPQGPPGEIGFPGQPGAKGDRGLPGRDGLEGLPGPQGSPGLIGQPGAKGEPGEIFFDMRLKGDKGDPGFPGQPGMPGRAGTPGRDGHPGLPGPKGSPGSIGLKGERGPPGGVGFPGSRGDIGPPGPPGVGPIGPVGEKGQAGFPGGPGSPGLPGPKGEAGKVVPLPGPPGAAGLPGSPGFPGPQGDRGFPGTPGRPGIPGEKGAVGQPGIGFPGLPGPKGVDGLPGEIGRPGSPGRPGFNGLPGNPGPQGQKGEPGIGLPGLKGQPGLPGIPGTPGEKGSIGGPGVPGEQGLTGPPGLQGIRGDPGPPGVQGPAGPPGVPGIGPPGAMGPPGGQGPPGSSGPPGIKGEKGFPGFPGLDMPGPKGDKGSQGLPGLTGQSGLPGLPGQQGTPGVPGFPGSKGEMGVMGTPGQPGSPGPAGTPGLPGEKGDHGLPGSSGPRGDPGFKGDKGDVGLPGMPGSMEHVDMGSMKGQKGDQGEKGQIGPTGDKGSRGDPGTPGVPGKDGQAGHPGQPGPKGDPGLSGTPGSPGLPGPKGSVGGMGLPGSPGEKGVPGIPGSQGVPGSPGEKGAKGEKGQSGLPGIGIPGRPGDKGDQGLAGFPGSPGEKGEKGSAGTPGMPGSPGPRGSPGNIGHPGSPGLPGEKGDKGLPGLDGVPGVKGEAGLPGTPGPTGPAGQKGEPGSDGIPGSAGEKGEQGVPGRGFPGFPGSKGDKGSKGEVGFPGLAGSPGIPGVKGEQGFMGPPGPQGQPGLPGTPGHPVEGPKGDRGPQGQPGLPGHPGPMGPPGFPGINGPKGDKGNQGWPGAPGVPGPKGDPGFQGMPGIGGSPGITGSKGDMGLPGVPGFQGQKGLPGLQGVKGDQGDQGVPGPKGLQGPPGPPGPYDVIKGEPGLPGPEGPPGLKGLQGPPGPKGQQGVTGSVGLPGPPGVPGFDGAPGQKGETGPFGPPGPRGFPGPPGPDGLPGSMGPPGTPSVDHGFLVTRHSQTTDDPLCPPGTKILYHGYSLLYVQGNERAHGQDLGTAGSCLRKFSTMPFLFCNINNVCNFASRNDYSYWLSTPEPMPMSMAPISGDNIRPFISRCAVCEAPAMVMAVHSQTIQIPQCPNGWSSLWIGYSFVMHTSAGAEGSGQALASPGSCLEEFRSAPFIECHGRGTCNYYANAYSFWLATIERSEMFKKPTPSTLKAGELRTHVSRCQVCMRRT
Chain of UniProt P02463 (P08122 184-1707, chain 2 of 2, further chain): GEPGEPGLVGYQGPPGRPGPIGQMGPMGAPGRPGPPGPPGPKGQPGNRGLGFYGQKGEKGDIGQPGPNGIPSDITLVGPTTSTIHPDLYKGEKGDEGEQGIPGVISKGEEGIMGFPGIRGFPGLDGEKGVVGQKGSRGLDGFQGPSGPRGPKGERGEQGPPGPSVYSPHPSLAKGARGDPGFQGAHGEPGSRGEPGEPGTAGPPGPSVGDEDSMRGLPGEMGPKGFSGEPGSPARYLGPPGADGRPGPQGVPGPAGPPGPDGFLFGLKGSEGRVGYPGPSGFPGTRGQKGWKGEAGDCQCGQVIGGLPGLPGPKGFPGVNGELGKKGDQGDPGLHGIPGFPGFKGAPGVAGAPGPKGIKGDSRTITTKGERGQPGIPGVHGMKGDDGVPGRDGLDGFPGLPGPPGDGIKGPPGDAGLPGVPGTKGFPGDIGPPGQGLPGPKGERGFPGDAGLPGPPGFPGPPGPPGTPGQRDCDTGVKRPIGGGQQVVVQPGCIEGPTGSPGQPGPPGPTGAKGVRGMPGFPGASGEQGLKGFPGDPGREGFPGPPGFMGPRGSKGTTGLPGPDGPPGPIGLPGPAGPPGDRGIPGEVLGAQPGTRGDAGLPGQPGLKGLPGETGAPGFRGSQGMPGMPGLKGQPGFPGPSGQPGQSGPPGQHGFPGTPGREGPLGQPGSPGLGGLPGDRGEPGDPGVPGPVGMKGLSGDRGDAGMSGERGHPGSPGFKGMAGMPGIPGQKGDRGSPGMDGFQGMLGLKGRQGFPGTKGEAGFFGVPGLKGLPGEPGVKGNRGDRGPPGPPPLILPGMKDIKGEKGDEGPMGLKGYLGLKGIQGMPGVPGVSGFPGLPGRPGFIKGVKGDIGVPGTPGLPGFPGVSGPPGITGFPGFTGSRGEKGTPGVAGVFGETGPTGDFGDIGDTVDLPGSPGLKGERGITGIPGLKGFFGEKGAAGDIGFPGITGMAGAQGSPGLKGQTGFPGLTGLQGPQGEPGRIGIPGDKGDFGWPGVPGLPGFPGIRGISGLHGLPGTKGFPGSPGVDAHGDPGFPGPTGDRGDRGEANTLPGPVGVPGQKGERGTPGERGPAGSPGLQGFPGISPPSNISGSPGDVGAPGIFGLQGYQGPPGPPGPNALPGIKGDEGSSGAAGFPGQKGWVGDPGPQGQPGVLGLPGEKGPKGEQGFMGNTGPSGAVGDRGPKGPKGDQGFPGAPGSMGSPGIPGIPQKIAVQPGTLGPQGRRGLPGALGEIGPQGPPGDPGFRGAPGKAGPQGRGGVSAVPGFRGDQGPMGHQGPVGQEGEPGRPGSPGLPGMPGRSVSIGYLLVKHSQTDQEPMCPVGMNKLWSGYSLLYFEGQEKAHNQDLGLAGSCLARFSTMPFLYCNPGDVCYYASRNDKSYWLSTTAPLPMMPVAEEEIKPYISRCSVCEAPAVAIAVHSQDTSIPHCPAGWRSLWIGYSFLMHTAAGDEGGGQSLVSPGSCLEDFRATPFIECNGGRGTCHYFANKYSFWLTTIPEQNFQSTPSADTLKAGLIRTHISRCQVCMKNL

Substance | fold adherence to collagen over the negative control (E. coli with pCC1.3) [fold]
Moraxella catarrhalis strain O35E Hag protein (wild type) (natural protein) | 80
Moraxella catarrhalis strain V1171 Hag protein (natural protein) | 35
Moraxella catarrhalis strain O12E Hag protein (natural protein) | 35
